Measured values taken from publication PMC12611769, “Phase-separated NDF−FACT condensates facilitate transcription elongation on chromatin” (Nature Cell Biology, 2025).
Numbering of substitutions follows the chain as printed. Numbers in names are those of the source.

B1: NDF_K161A, full-length, His6-tagged (natural protein, human, UniProt Q49A26 1-553, looked up)
chain: MAAVSLRLGDLVWGKLGRYPPWPGKIVNPPKDLKKPRGKKCFFVKFFGTEDHAWIKVEQLKPYHAHKEEMIKINKGKRFQQAVDAVEEFLRRAKGKDQTSSHNSSDDKNRRNSSEERSRPNSGDEKRKLSLSEGKVKKNMGEGKKRVSSGSSERGSKSPLARAQEQSPRKRGRPPKDEKDLTIPESSTVKGMMAGPMAAFKWQPTASEPVKDADPHFHHFLLSQTEKPAVCYQAITKKLKICEEETGSTSIQAADSTAVNGSITPTDKKIGFLGLGLMGSGIVSNLLKMGHTVTVWNRTAEKCDLFIQEGARLGRTPAEVVSTCDITFACVSDPKAAKDLVLGPSGVLQGIRPGKCYVDMSTVDADTVTELAQVIVSRGGRFLEAPVSGNQQLSNDGMLVILAAGDRGLYEDCSSCFQAMGKTSFFLGEVGNAAKMMLIVNMVQGSFMATIAEGLTLAQVTGQSQQTLLDILNQGQLASIFLDQKCQNILQGNFKPDFYLKYIQKDLRLAIALGDAVNHPTPMAAAANEVYKRAKALDQSDNDMSAVYRAYIH
notes: human NDF (Glyr1), full-length, K161A; source: bacterial expression (pET21b), purified
B2: NDF_R162A, full-length, His6-tagged (natural protein, human, UniProt Q49A26 1-553, looked up)
chain: B1 chain with A161K, R162A
notes: human NDF (Glyr1), full-length, R162A; source: bacterial expression (pET21b), purified
B3: hNDF-FLAG (recombinant NDF-Flag) (natural protein, human, UniProt Q49A26 1-553, looked up)
chain: B1 chain with A161K
notes: human nucleosome destabilizing factor (NDF; Glyr1); source: bacterial expression (pET21b-hNDF-FLAG), purified as previously described
B4: His6-hNDF, full-length wild type (natural protein, human, UniProt Q49A26 1-553, looked up)
chain: B1 chain with A161K
notes: human nucleosome destabilizing factor (NDF; Glyr1), full-length; vector name has His6 before hNDF, a legend prints 'NDF-his'; also called NDF-his; His6-tagged NDF-WT; source: bacterial expression (pET21b-His6-hNDF), purified as previously described

What was measured:
Conditions in all cases: both partners purified
Flag-tagged hSpt16 = target: T1, Flag-tagged hSpt16 (human, UniProt Q9Y5B9 1-1047); experiment: pull-down; Ni-NTA beads, His6-tagged NDF (WT, truncates or mutants; 40 pmol) as bait with 20 pmol Flag-tagged hSpt16 or FACT in 300 µl of 10 mM Tris-HCl pH 7.5, 200 mM NaCl, 0.2% Nonidet P-40, 10% glycerol, 4 °C 3 h; SDS-PAGE, silver staining
T1 construct: human SUPT16H (hSpt16); methods print 'Flag-hSpt16', legends 'Spt16-FLAG'; also called Spt16-FLAG; Flag-hSpt16; source: Sf9 cells (pFastBac-FLAG-hSpt16), purified; also co-expressed with untagged hSSRP1 in Sf9, in cell extract

[1] = target: T2, FACT complex used as prey in the FLAG pull-down with NDF-Flag (his-FACT) (human, UniProt Q9Y5B9 1-1047; Q08945 1-709); experiment: pull-down; Flag M2 beads, NDF-Flag as bait; 10 mM Tris-HCl pH 7.5, 200 mM NaCl, 0.2% Nonidet P-40, 10% glycerol, 4 °C 3 h; SDS-PAGE, silver staining
T2 construct: human SUPT16H (hSpt16); human SSRP1; the his-tagged subunits are surmised because the bait was held on Flag M2 beads; source: Sf9 cells (Bac-to-Bac), his-FACT subunits expressed separately, purified similar to his-hNDF

[2] = target: T3, His6-hSpt16 (recombinant his-tagged Spt16 subunit of FACT) (human, UniProt Q9Y5B9 1-1047); experiment: as above
T3 construct: human SUPT16H (hSpt16); The His6 tag was inserted into pFastBac-FLAG-hSpt16; also called his-FACT subunit; source: Sf9 cells (Bac-to-Bac), expressed separately, purified similar to his-hNDF

[3] = target: T4, Flag-tagged FACT complex (Flag-hSpt16 + untagged hSSRP1) (human, UniProt Q9Y5B9 1-1047; Q08945 1-709); experiment: co-sedimentation; sedimentation assay of condensates: NDF and FACT mixed in a 100 mM NaCl buffer without PEG, 10 min at 22 °C, 17,200g 10 min; supernatant and pellet on SDS-PAGE, Coomassie
T4 construct: human SUPT16H (hSpt16); human SSRP1, untagged; complex formed beforehand by co-expression; also called FACT-FLAG; hFACT; source: Sf9 cells, co-expressed, purified (anti-Flag M2 agarose, 3x Flag peptide elution)
T4 sequence (Q9Y5B9 whole entry, chain 1 of 2): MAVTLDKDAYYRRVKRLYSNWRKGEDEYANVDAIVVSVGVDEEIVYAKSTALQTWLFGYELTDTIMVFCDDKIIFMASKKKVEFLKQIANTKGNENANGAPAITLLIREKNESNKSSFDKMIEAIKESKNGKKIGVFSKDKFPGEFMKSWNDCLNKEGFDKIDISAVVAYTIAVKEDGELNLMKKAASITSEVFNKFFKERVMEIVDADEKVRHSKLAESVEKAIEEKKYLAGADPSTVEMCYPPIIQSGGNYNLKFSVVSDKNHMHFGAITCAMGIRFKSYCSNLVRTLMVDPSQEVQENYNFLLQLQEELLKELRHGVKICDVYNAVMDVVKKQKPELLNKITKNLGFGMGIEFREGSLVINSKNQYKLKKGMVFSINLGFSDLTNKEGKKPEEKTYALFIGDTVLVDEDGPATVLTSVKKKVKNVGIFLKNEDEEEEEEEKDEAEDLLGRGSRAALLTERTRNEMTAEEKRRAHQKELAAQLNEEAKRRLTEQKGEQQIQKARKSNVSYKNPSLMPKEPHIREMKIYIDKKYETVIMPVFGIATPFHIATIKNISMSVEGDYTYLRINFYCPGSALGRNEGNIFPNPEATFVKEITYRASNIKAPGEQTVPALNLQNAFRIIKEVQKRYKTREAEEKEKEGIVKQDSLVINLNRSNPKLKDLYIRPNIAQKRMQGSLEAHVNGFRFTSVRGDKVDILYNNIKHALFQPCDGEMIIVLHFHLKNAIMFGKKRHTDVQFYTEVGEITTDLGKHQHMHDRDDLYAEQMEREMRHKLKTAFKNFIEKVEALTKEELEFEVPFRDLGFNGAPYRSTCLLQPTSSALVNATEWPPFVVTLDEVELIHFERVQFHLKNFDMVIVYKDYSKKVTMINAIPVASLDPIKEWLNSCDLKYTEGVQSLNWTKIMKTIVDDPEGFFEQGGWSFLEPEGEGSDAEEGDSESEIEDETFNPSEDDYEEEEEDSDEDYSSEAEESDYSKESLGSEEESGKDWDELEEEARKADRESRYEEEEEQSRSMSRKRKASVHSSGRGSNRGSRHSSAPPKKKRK
T4 sequence (Q08945 whole entry, chain 2 of 2): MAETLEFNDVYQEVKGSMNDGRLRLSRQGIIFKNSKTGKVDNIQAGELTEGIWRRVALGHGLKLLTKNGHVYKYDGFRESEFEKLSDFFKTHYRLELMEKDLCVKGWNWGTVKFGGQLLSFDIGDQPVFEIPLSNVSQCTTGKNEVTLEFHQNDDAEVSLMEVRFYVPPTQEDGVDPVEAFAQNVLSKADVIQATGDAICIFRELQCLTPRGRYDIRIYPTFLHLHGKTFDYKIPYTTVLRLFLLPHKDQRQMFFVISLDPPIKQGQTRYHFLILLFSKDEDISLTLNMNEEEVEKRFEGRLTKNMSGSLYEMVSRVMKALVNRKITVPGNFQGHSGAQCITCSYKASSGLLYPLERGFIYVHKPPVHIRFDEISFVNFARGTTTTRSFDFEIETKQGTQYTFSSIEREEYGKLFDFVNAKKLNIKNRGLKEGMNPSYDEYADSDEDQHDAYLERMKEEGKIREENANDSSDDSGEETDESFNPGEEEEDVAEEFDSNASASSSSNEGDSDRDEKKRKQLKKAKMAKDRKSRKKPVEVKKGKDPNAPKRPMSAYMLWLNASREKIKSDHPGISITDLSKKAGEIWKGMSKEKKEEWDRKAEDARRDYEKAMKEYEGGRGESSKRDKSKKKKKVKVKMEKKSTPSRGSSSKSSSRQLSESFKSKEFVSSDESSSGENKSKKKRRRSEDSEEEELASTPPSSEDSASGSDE

T1 sequence (Q9Y5B9 whole entry, the tested form may be a part): as the sequence (Q9Y5B9 whole entry, chain 1 of 2) above
T2 sequence (Q9Y5B9 whole entry, chain 1 of 2): as above
T2 sequence (Q08945 whole entry, chain 2 of 2): as the sequence (Q08945 whole entry, chain 2 of 2) above
T3 sequence (Q9Y5B9 whole entry): as the sequence (Q9Y5B9 whole entry, chain 1 of 2) above

| Binder | binding result (Flag-tagged hSpt16) | binding result [1] | binding result [2] | binding result [3] |
| --- | --- | --- | --- | --- |
| B1 | binds | – | – | – |
| B2 | binds | – | – | – |
| B3 | – | binds | binds | – |
| B4 | binds | – | – | binds |
